This assay concerns the target T1, CSPG (bovine) (D8428, Sigma) (bovine, UniProt P21793 31-360, carries chondroitin sulfate A (CSA) glycosaminoglycan chain(s); the filing attributes the binding of VAR2CSA to this glycan).
T1 construct: also called chondroitin sulfate proteoglycan; CSA proteoglycan
Nature of the assay: quartz crystal microbalance (Attana A100); legend: N/A = no KD value could be determined, due to a lack of binding to CSA.

T1 sequence (P21793 31-360): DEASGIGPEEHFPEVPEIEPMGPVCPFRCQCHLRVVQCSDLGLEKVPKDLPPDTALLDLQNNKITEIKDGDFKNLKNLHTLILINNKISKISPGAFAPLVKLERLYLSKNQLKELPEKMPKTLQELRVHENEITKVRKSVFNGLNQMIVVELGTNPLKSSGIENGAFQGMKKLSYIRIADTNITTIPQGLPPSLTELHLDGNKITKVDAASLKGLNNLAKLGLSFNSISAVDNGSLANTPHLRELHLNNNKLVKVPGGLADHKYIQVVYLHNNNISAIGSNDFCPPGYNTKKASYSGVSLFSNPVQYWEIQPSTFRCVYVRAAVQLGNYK

B1: ID1-DBL2Xa (3D7, Baculo) (other)
chain: LSFILNSSDANNPSEKIQKNNDEVCNCNESGIASVEQEQISDPSSNKTCITHSSIKANKKKVCKHVKLGVRENDKDLRVCVIEHTSLSGVENCCCQDFLRILQENCSDNKSGSSSNGSCNNKNQEACEKNLEKVLASLTNCYKCDKCKSEQSKKNNKNWIWKKSSGKEGGLQKEYANTIGLPPRTQSLCLVVCLDEKGKKTQELKNIRTNSELLKEWIIAAFHEGKNLKPSHEKKNDDNGKKLCKALEYSFADYGDLIKGTSIWDNEYTKDLELNLQKIFGKLFRKYIKKNNTAEQDTSYSSLDELRESWWNTNKKYIWLAMKHGAGMNSTTCCGDGSVTGSGSSCDDIPTIDLIPQYLRFLQEWVEHFCKQRQEKVKPVIENCKSCKESGGTCNGECKTECKNKCEVYKKFIEDCKGGDGTAGSSWVKRWDQIYKRYSKYIEDAKRNRKAGTKNCGPSSTTNAA
notes: not shown: V5 and His tag at the C-terminal (modified pAcGP67-A)
For B1, the binding result is reported as “no binding”.

B2: DBL1X-DBL2Xa (FCR3, Baculo) (other)
chain: HSDSGKYDPCEKKLPPYDDNDQWKCQQNSSDGSGKPENICVPPRRERLCTYNLENLKFDKIRDNNAFLADVLLTARNEGEKIVQNHPDTNSSNVCNALERSFADLADIIRGTDQWKGTNSNLEKNLKQMFAKIRENDKVLQDKYPKDQKYTKLREAWWNANRQKVWEVITCGARSNDLLIKRGWRTSGKSDRKKNFELCRKCGHYEKEVPTKLDYVPQFLRWLTEWIEDFYREKQNLIDDMERHREECTREDHKSKEGTSYCSTCKDKCKKYCECVKKWKTEWENQENKYKDLYEQNKNKTSQKNTSRYDDYVKDFFEKLEANYSSLENYIKGDPYFAEYATKLSFILNPSDANNPSGETANHNDEACNCNESGISSVGQAQTSGPSSNKTCITHSSIKTNKKKECKDVKLGVRENDKDLKICVIEDTSLSGVDNCCCQDLLGILQENCSDNKRGSSSNDSCDNKNQDECQKKLEKVFASLTNGYKCDKCKSGTSRSKKKWIWKKSSGNEEGLQEEYANTIGLPPRTQSLYLGNLPKLENVCEDVKDINFDTKEKFLAGCLIVSFHEGKNLKKRYPQNKNSGNKENLCKALEYSFADYGDLIKGTSIWDNEYTKDLELNLQNNFGKLFGKYIKKNNTAEQDTSYSSLDELRESWWNTNKKYIWTAMKHGAEMNITTCNADGSVTGSGSSCDDIPTIDLIPQYLRFLQEWVENFCEQRQAKVKDVITNCKSCKESGNKCKTECKTKCKDECEKYKKFIEACGTAGGGIGTAGSPWSKRWDQIYKRYSKHIEDAKRNRKAGTKNCGTSSTTNAA
notes: Range derived by me from the FCR3 DBL1X forward primer and the FCR3 DBL2Xa reverse primer (STTNAA), which ends 93 residues before the DBL2Xb border; not shown: V5 and His tag at the C-terminal (modified pAcGP67-A)
Consider B2, for which the binding result is reported as “no binding”.

These data come from patent US20170016905A1 (VAR2 PHARMACEUTICALS, published 2017).
